Data taken from patent publication US20160251436A1 (PD 1 ACQUISITION GROUP, published 2016).
Residue numbers refer to the chain shown, from its start.

B1: 100413_D2VH9_100414_D2VK6 (antibody, V domains shown)
VH: EVQLQESGPDLVKPSQSLSLTCTVTGYSITSGYSWHWIRQFPGNKLEWMGFIHYSGDTNYNPSLKSRFSITRDTSKNQFFLHLNSVTPEDTATYYCASPSRLLFDYWGHGTTLTVSS
VL: DIVMTQSPSSLTVTAGEKVTMSCKSSQSLLNSGTQKNYLTWYQQKPGQPPKLLIYWASTRESGVPDRFTGSGSGTDFTLTISSVQAEDLAVYYCQNDYSYPLTFGAGTKLEIK
notes: Mouse variable regions; cloned into pFUSE-CHIg-mG1 (murine IgG1 Fc), expressed in HEK293
B2: 100411_C2VH3_100412_C2VK7 (antibody, V domains shown)
VH: EVQLQESGPGLVKPSQSLSLTCTVTGYSITSDYAWNWIRQFPGNKLEWMGYITYSGSPTYNPSLKSQFSITRDTSKNQFFLQLNSVTTEDTATYYCARGLGGHYFDYWGQGTTLTVSS
VL: DIVLTQTTATLSVTPGDRVSLSCRASQSISDYLHWYQQKSHESPRLLIKYASQSISGIPSRFSGSGSGSDFTLTVNSVEPEDVGVYYCQNGHSYPYTFGGGTKLEIK
notes: as for B1
B3: 100244_C7VH10_100245_C8VK5 (antibody, V domains shown)
VH: EVQLQESGPELVRPGASVKMSCKASGYTFTSYWMHWVKQRPGQGLEWIGMIDPSNSETSLNQKFKDKATLNVDKSSKTAYMQLSSLTSEDSAVYYCARSRGNYAYDMDYWGQGTSVTVSS
VL: DIVITQTTAIMSASPGEKVTLTCSASSSVSSNYLYWYQQRPGSSPKLWIYSTSNLASGVPARFSGSGSGTSYSLTISSMEAEDAASYFCHQWSSYPPTFGSGTKLEIK
notes: as for B1
B4: 100244_C7VH10_100245_C8VK5m1 (antibody, V domains shown)
VH: B3 VH
VL: B3 VL with I4L, T8P
notes: Mouse variable regions; cloned into pFUSE-CHIg-mG1 (murine IgG1 Fc), expressed in HEK293; also called 244C7m1
B5: 100258_F6VH4_100259_F6VK1m1 (antibody, V domains shown)
VH: B3 VH with D52E, N55S, K77N, D106E
VL: B3 VL with I4M, T8P, I10T, S30N, R40K, L47V, I107L
notes: Mouse variable regions; cloned into pFUSE-CHIg-mG1 (murine IgG1 Fc), expressed in HEK293; also called 258F6m
B6: 100388_C1VH2_100389_C1VK1 (antibody, V domains shown)
VH: EVQLQESGPELVKPGASVKIPCKASGYTFTDYNMDWVKQSHGKSLEWIGDIDPNNGGIIYNQKFKGKAALTVDKSSSTAYMELRSLTSEDTAVYYCARWRSSMDYWGQGTSVTVSS
VL: DIVMTQSPSSLSASLGDRVTISCSASQDISSYLNWYQQKPDGTVKLLIYYTSSLHSGVPSRFSGSGSGTDYSLTISNLEPEDIATYYCQQYSELPWTFGGGTKLEIK
notes: Mouse variable regions; cloned into pFUSE-CHIg-mG1 (murine IgG1 Fc), expressed in HEK293; also called 388C12A
B7: 100388_C1VH2_100389_C1VK2 (antibody, V domains shown)
VH: B6 VH
VL: B6 VL with M4L, S7T, D28G, S31N, E93K
notes: Mouse variable regions; cloned into pFUSE-CHIg-mG1 (murine IgG1 Fc), expressed in HEK293; also called 388C12B
B8: 100388_C1VH6_100389_C1VK1 (antibody, V domains shown)
VH: B6 VH with A97T
VL: B6 VL
notes: Mouse variable regions; cloned into pFUSE-CHIg-mG1 (murine IgG1 Fc), expressed in HEK293; also called 388C16A
B9: 100388_C1VH6_100389_C1VK2 (antibody, V domains shown)
VH: B6 VH with A97T
VL: B6 VL with M4L, S7T, D28G, S31N, E93K
notes: Mouse variable regions; cloned into pFUSE-CHIg-mG1 (murine IgG1 Fc), expressed in HEK293; also called 388C16B
B10: 100392_C4VH5_100393_C4VK8 (antibody, V domains shown)
VH: B6 VH with Q39K, I58T, A69T, S77R
VL: B6 VL with M4I, D28G, S31N
notes: as for B1
B11: 100392_C5VH6_100393_C5VK7 (antibody, V domains shown)
VH: B6 VH with N55S, I58S, A69T, S77R, A79V
VL: B6 VL with D28G, S31H, S76R
notes: Mouse variable regions; cloned into pFUSE-CHIg-mG1 (murine IgG1 Fc), expressed in HEK293; also called 392C5A
B12: 100392_C5VH6_100393_C5VK10 (antibody, V domains shown)
VH: B6 VH with N55S, I58S, A69T, S77R, A79V
VL: B6 VL with P8T, D28G, S31H, S76R
notes: Mouse variable regions; cloned into pFUSE-CHIg-mG1 (murine IgG1 Fc), expressed in HEK293; also called 392C5B
B13: 100392_D2VH7_100393_D2VK6 (antibody, V domains shown)
VH: B6 VH with N55T, G57T, I58T, I59F, K63D, A69T, V112L
VL: B6 VL with S7T, D28G, S31Y, V44I, S52L
notes: as for B1
B14: 100392_H4VH9_100393_H4VK6 (antibody, V domains shown)
VH: B6 VH with M34V, I58T, I59F, A69T, Y80H, A97V
VL: B6 VL with D28G, S31N, S53N, N77D, E79A, E93Y
notes: as for B1
B15: 100394_D5VH9_100395_D5VK7 (antibody, V domains shown)
VH: B6 VH with K23R, T28I, I58T, G66D, A68T, A69T, S77R
VL: B6 VL with S7T, L11M, D28G, S31N, E93Y
notes: as for B1
B16: 100394_G1VH1_100395_G1VK4 (antibody, V domains shown)
VH: B6 VH with S40N, G57D, I58T, A69T, S77R
VL: B6 VL with D28G, S31N, K39R, E93N
notes: as for B1
B17: 100392_A6VH8_100393_A6VK5 (antibody, V domains shown)
VH: EVQLQESGAELVRPGASVTLSCKASGYTFTDYEIHWVKQTPVHGLEWIGAIDPETGGTAYNQKFKGKAILTADKSSSTAYMELRSLTSEDSAVYYCTSEKFGSSYYFDYWGQGTTFTVSS
VL: DIVMTQSTLSLPVSLGDQVSISCRSSQSIVHSDGNTYLEWYLQKPGQSPNLLIYKVSNRFSGVPDRFSGSGSGTDFTLKISRVEAEDLGVYYCFQGSHVPLTFGAGTKLELK
notes: as for B1
B18: 100246_F7VH3_100247_F7VK2 (antibody, V domains shown)
VH: B3 VH with S54Y, N55S, S75I, K77N, Y95F
VL: B3 VL with I4L, T7S, S28G, S30N, R40K, M79V
notes: as for B1
B19: 100258_F6VH4_100259_F6VK1 (antibody, V domains shown)
VH: B3 VH with D52E, N55S, K77N, D106E
VL: B3 VL with I4M, I10T, S30N, R40K, L47V, I107L
notes: as for B1
B20: 100258_C1VH4_100259_C1VK1 (antibody, V domains shown)
VH: EVQLQESGAELVMPGASVKMSCKASGYTFTDYWMHWVKQRPGQGLEWIGAIDTSDSYTSYHQNFKGKATLTEDESSSTAYMQLSSLTSEDSAIYYCARRDYGGFGYWGQGTTLTVSS
VL: DIVITQSPLSLPVGLGDQASISCRSSQSLVHSNGNTYLHWYLQKPGQSPKLLIYKVSNRFSGVPDRFSGSGSGTDFTLKISRVEAEDLGVYFCSQSTHVPYTFGGGTKLEIK
notes: as for B1
B21: 100413_H1VH3_100414_H1VK6 (antibody, V domains shown)
VH: EVQLQESGPSLVQPSQSLSITCTVSGFSLTNYGVHWVRQSPGKGLEWLGVIWRGGNTDYNAAFMSRLSITKDNSKSQVFFKFHSLQTDDTAIYYCAASMIGGYWGQGTTLTVSS
VL: B17 VL with M4L, T8P, V19A, N50K, V90I
notes: as for B1
B22: 100394_F1VH8_100395_F1VK4 (antibody, V domains shown)
VH: B6 VH with I58T, K63N, A69T
VL: B6 VL with M4L, D28G, S31N, E93K
notes: as for B1
B23: 100392_B4VH10_100393_B4VK10 (antibody, V domains shown)
VH: B6 VH with K13R, K38M, I58T, A69T, A97T
VL: B6 VL with D28G, S31N, S53N, N77D, E79A, E93Y
notes: as for B1
B24: 100388_H4VH1_100389_H4VK4 (antibody, V domains shown)
VH: EVQLQESGPGLVAPSQSLSITCTVSGFSLTNYGVDWVRQSPGKGLEWLGVIWGVGSTNYNSALKSRLSISKDNSKSQVFLKMNSLQTDDTAMYYCASDGFVYWGQGTLVTVSS
VL: DIVLTQDELSNPVTSGESVSISCRSSKSLLYKDGKTYLNWFLQRPGQSPQVLIYFMSTRASGVSDRFSGSGSGTDFTLEISRVKAEDVGVYYCQQLVDFPFTFGSGTKLELK
notes: as for B1
B25: 100392_C3VH7_100393_C3VK10 (antibody, V domains shown)
VH: B24 VH with N31S, V54I, T87S
VL: B24 VL with L4M, S10Y, L111I
notes: as for B1

target: T1, soluble extracellular domain of human PD-1 (human, UniProt Q15116 25-170); assay: BLI (ForteBio Octet Red), antibody on the biosensor, soluble PD-1 ECD as analyte
T1 construct: extracellular domain
Protocol: Biophysical characteristics of certain anti-PD-1 antibodies were analyzed by biolayer interferometry (BLI), using the ForteBio Octet Red system (Pall Corporation, Menlo Park, Calif.). The antibodies were immobilized on BLI biosensors and then incubated with the soluble extracellular domain of human PD-1. Using standard biophysics methods, apparent on-rates and off-rates were then inferred for PD-1 with anti-PD-1 antibodies.

T1 sequence (Q15116 25-170): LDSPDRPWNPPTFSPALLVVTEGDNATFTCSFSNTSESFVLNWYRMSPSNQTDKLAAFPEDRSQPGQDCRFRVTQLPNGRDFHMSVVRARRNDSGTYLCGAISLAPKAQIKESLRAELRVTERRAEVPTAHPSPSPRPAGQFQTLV

Q: B1 was tested. Which Kd did it give?
A: 8.2 nM

Q: What about the koff of the same binder?
A: 0.00226 s⁻¹

Q: What about the kon of the same binder?
A: 275000 M⁻¹ s⁻¹

target: T2, human Programmed Death-1 (PD-1) expressed on the cell surface (human, UniProt Q15116 25-288); assay: cell binding, HEK293 cells expressing human PD-1, fluorescent anti-mouse secondary
T2 construct: whole, on cells; also called CD279; Human PD-1 Expressed on HEK293 Surface
Protocol: Recombinant antibodies from cultured supernatants were also used in cell-based binding studies. HEK293 cells were transfected (Qiagen, SuperFect) with expression plasmids encoding the Ig heavy and light chains of anti-PD-1 antibodies. After 3-5 days, recombinant antibodies in the supernatants of transfected cells were harvested. Stable HEK293 cells expressing human PD-1 or primary cells were used for the cell-based binding confirmation studies. Antibodies from cultured supernatants were assessed for binding to cell surface PD-1 using fluorescently labeled anti-mouse IgG (polyclonal) antibody (Jackson Immunoresearch).
In both studies, commercially available mouse anti-PD-1 antibody and isotype control mouse IgG1 […] were used as controls. […] Strong binding is denoted as “+++”, medium binding is denoted as “++”, and weak binding is denoted as “+”.

T2 sequence (Q15116 25-288): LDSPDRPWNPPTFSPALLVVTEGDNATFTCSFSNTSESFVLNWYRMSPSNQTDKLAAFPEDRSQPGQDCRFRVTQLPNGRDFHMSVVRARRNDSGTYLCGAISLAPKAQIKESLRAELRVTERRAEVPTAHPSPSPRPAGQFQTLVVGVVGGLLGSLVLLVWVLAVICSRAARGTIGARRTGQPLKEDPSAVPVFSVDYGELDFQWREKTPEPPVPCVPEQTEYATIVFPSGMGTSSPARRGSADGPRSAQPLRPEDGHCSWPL

Q: Does B2 bind?
A: binds

Q: Does B3 bind?
A: binds

Q: Does B4 bind?
A: binds

Q: Does B5 bind?
A: binds

Q: Does B6 bind?
A: binds

Q: Does B7 bind?
A: binds

Q: Does B8 bind?
A: binds

Q: Does B9 bind?
A: binds

Q: Does B10 bind?
A: binds

Q: Does B11 bind?
A: binds

Q: Does B12 bind?
A: binds

Q: Does B13 bind?
A: binds

Q: Does B14 bind?
A: binds

Q: Does B15 bind?
A: binds

Q: Does B16 bind?
A: binds

Q: Does B17 bind?
A: binds

Q: Does B18 bind?
A: binds

Q: Does B19 bind?
A: binds

Q: Does B20 bind?
A: binds

target: T3, PD-1-HIS (human, UniProt Q15116); assay: ELISA, supernatant of transfected HEK293 cells on PD-1-HIS(tag), OD 450 nm, average of two experiments
T3 construct: soluble extracellular domain; May be the same protein as m2; also called PD-1-HIS(tag); PD-1-His Tag (Sino Biological #10377-H08H-50)
T3 sequence (Q15116 25-167 limits assumed): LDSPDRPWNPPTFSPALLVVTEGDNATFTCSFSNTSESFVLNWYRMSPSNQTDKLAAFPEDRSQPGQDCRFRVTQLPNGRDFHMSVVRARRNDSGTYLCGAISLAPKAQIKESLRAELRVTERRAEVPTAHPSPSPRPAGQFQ

Q: Does B21 bind?
A: binds

Q: Does B2 bind?
A: binds

Q: Does B3 bind?
A: binds

Q: Does B4 bind?
A: binds

Q: Does B5 bind?
A: binds

Q: Does B22 bind?
A: binds

Q: Does B6 bind?
A: binds

Q: Does B7 bind?
A: binds

Q: Does B8 bind?
A: binds

Q: Does B9 bind?
A: binds

Q: Does B23 bind?
A: binds

Q: Does B10 bind?
A: binds

Q: Does B11 bind?
A: binds

Q: Does B12 bind?
A: binds

Q: Does B13 bind?
A: binds

Q: Does B14 bind?
A: binds

Q: Does B15 bind?
A: binds

Q: Does B16 bind?
A: binds

Q: Does B17 bind?
A: binds

Q: Does B24 bind?
A: binds

Q: Does B25 bind?
A: binds

Q: Does B18 bind?
A: binds

Q: Does B19 bind?
A: binds

Q: Does B20 bind?
A: binds
